In series [1] the target is T1, R.NgoAVII-B3 (C-terminal B3-like DNA-binding domain) (UniProt Q5F9M9 179-345).
T1 sequence: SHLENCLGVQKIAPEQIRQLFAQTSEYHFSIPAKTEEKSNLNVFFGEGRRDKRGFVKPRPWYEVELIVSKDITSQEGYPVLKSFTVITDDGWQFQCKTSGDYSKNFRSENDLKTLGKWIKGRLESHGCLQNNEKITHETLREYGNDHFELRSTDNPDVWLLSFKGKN
Description: X-ray crystallography.

Series [2] has as its target T1, R.NgoAVII-B3 (C-terminal B3-like …). Description: X-ray crystallography. This is another data set of the same source.

Where two headings read alike, the source gives them in different places.

Experimental findings from article PMC4267654 are described below.

B1: DNA-1 cognate oligoduplex (dsDNA)
DNA 1: GGGATTGCCGCTTAGG
DNA 2: CCCTAAGCGGCAATCC
Consider B1, for which the binding result in series [1] is given as “binds”.

B2: DNA-2 oligoduplex (DNA-1 without terminal C1 and G32) (dsDNA)
DNA 1: GGGATTGCCGCTTAG
DNA 2: CCTAAGCGGCAATCC
Consider B2, for which the binding result in series [2] is reported as “binds”.
